In paper PMC7782850, “Metaxins are core components of mitochondrial transport adaptor complexes” (Nature Communications, 2021):

T1: His-MIRO-1 (C. elegans, UniProt Q94263 1-602)
T1 construct: C. elegans MIRO-1, residues 1-602; source: E. coli BL21 (DE3) codon plus, purified (Ni2+-Sepharose, size-exclusion chromatography)
T1 sequence (looked up): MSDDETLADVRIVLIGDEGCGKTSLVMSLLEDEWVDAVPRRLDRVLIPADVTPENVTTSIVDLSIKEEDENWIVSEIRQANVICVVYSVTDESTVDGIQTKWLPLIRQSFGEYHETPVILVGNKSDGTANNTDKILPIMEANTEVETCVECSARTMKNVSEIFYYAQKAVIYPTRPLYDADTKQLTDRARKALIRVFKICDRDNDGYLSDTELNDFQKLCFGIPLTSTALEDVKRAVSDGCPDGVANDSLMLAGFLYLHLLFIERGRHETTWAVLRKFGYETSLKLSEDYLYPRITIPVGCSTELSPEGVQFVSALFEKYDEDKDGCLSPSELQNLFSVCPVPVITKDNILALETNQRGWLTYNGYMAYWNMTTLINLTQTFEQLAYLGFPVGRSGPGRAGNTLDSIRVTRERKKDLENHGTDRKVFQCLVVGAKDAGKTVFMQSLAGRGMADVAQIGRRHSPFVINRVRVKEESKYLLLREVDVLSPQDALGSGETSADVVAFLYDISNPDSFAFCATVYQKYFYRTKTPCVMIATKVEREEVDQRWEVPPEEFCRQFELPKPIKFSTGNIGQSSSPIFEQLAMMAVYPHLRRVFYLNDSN

T2: Trx-MTX-1 (C. elegans, UniProt O45503 1-281)
T2 construct: C. elegans MTX-1, residues 1-281
T2 sequence (looked up): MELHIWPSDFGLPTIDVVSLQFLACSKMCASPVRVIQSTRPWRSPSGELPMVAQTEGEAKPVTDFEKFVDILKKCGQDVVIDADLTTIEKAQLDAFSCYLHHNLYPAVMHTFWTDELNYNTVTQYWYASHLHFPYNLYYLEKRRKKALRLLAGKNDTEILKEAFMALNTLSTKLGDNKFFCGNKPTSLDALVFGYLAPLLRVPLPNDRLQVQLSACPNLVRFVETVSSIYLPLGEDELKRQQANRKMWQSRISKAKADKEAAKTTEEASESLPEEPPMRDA

B1: MTX-1/2 complex (formed by co-expression of Trx-MTX-1 and Trx-MTX-2) (complex, C. elegans)
chain 1: T2 sequence (looked up)
chain 2: MSSSGVITQLVTDALSMNAAQDWEDVSLFTPYLNDQALMYDFADCLAVQTFLRMTSLPFNVRQRPNVDFISPDGVVPLLKINKTLITGFNAIVDFVHKKGVTLTSHLSETQVADMRANISMIEHLLTTVEKFVLWNHDETYDKVTKLRYGSVYHWPLSSVLPFVKRRKILEELSDKDWDTKTMDEVGEQADKVFRALSAQLGSQKYLTGDLPTEADALLFGHMYTLITVR
notes: C. elegans MTX-1, residues 1-281; C. elegans MTX-2, full length; Complex formed beforehand by co-expression of the two chains; also called MTX-1/MTX-2 complex; metaxin complex; source: E. coli BL21 (DE3) codon plus, co-expressed (pRSFDuet-1); in cell lysate (pull-down); purified (Ni2+-Sepharose, size-exclusion chromatography) for gel filtration
B2: Trx-MTX-2 (natural protein, C. elegans, UniProt P34599 1-230, looked up)
chain: B1 chain 2
notes: C. elegans MTX-2, full length; source: E. coli BL21 (DE3) codon plus; in cell lysate (pull-down); purified (Ni2+-Sepharose, size-exclusion chromatography) for gel filtration

How the values were obtained:
[1] = target: T1, His-MIRO-1; test: SEC; analytical gel filtration of purified proteins, Superdex-200 10/300, 25 mM HEPES pH 7.4, 100 mM NaCl, 1 mM DTT, 1 mM EDTA; fractions analysed by SDS-PAGE with Coomassie-blue staining; details: both partners purified
[2] = target: T2, Trx-MTX-1; test: as above; details: both partners purified

Row | Binder | binding result [1] | binding result [2]
1 | B1 | binds | –
2 | B2 | binds | binds
